# ± gives the standard error. Variants at the floor of the assay were thinned out.
# B1: glmS ribozyme (parent)
# chain: AUAAAAGCGCCAGAACUACAGAAAUGUAGUUGACGAGGAGGAGGUUUAUCGAAUUUUCGGCGGAUGCCUCCAAA
# Variants of: B1
# Assay: self-cleavage kobs at 2500 uM GlcN6P; higher = faster cleavage; RNA array
# Conditions: with glucosamine-6-phosphate
# Summary of the method: (§1)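 Ribozyme variants carrying barcodes were transcribed in situ on sequenced MiSeq chips by E. coli RNA polymerase and tracked at 37 °C with a hybridised Cy3 probe. They were exposed to 40 μM to 10 mM glucosamine-6-phosphate in HEPES/KCl/Mg(OAc)2 buffer. kobs came from exponential decay fits of normalised per-tile medians, and kcat and KM from weighted Michaelis–Menten fits.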
row,Variant,self-cleavage kobs at 2500 uM GlcN6P [s⁻¹]
1,G13C G35U A52C,< 1e-05
2,A15C G40U A42C,< 1e-05
3,G13U G66A,0.000499 ± 0.0001
4,A14G U46C U54A C71A,0.000844 ± 0.00027
5,A12G G32C A36U,< 1e-05
6,G13U G38C A53U,< 1e-05
7,G26A U30C,0.000125 ± 3.9e-05
8,A12U C16A U46C,0.000144 ± 4.6e-05
9,G13A G44U A64U,< 1e-05
10,G13A C34A A39G G59A G62C,< 1e-05
11,A14U C50U G63C,< 1e-05
12,A14U U45C G60C G63C,< 1e-05
13,A12U G41C U46G C68A,< 1e-05
14,G29A U65G,0.000664 ± 0.00023
15,A12U A15G U45C C50G C61A,< 1e-05
16,A15C U69G,7.29e-05 ± 2.2e-05
17,A12G U31A U45A,0.000216 ± 6.4e-05
18,A14G A42G A52U,9.16e-05 ± 3.3e-05
19,G26U G32U U55G,0.000168 ± 8.2e-05
20,C16G U55A C67U C71A,8.06e-05 ± 2.9e-05
21,A14G A33U C70G,< 1e-05
22,A14U C50A A53G C70A,7.44e-05 ± 1.4e-05
23,A15G C16U U31A A39C,0.000142 ± 2.8e-05
24,G26U A33U,0.000111 ± 2.1e-05
25,A14U U56A G63A,< 1e-05
26,A15G G35C G37C U49C,< 1e-05

row,Variant,self-cleavage kobs at 2500 uM GlcN6P [s⁻¹]
1,G13A C34G G35A G41A U65A G66U,< 1e-05
2,G13A A33U A53C,< 1e-05
3,G13A U30A G32U,7.99e-05 ± 1.7e-05
4,A15C U30A A33C G41U C50U C68A C70G,< 1e-05
5,G13C G29C U55A,8.97e-05 ± 2.5e-05
6,A12G C16U A53C,7.22e-05 ± 1.7e-05
7,A15G U57A C68A,5.07e-05 ± 1.9e-05
8,G29A G41U G62C,< 1e-05
9,G13A A64C C71U,< 1e-05
10,C16G G41U C50G,< 1e-05
11,C19A A42C,< 1e-05
12,A12U U54A G60C U65A,< 1e-05
13,A14G U30C A39C U54A,0.000132 ± 2.6e-05
14,A14C G40U U47C A53G C61A C70U,< 1e-05
15,A12U A15C G44U,4.81e-05 ± 1.7e-05
16,A14G C16U A53U,0.0165 ± 0.0044
17,A12U C34A G35A U49G,< 1e-05
18,G13U A39U U56A,0.000101 ± 2e-05
19,C16U A39U U54G,0.00743 ± 0.0018
20,A15C A42G C70G,7.41e-05 ± 1.9e-05
21,A12U U31G U69A,0.000111 ± 4.9e-05
22,A12U A64G C67G,7.12e-05 ± 2.2e-05
23,G13U U30G G32C,4.58e-05 ± 1.5e-05
24,G13U A42U C50U,< 1e-05
25,A14C G29C G44C U49G G59C C71U,< 1e-05
26,A15C U31C G41C U57G,< 1e-05

row,Variant,self-cleavage kobs at 2500 uM GlcN6P [s⁻¹]
1,G29C A33U G62A A64U,< 1e-05
2,C16G G37U A42G,< 1e-05
3,A12G G13U G51U G63U C70A,0.000271 ± 9.9e-05
4,G13C A14C G35C,< 1e-05
5,C16A U55A G59C C67U C70G,9.74e-05 ± 3.6e-05
6,A12G G59U G60U U65G,< 1e-05
7,A12U U56A C68A,6.47e-05 ± 1.9e-05
8,A12U G32C G40U U45C,< 1e-05
9,A12U G35A A52C C58G C68G,< 1e-05
10,G13A A14U U56A,0.000412 ± 0.0001
11,G29A G63A,< 1e-05
12,A12G G40A G60A U69G,< 1e-05
13,C16U U31G G41C C67U,< 1e-05
14,A14C U31A A42C A48G C71G,< 1e-05
15,A14U G66A C70U,0.00125 ± 0.00031
16,A12G A39C G51U U56A,< 1e-05
17,G29A G32C C34A A48G U57A,< 1e-05
18,A14C G29U A53G U65G,6.14e-05 ± 1.8e-05
19,C16A U46C U56C G63U C70U,< 1e-05
20,A15U G35U G40A,< 1e-05
21,A14C U45G C68U,3.4e-05 ± 1.6e-05
22,C16A G43U G51A,< 1e-05
23,G13U U55A C58A,0.001 ± 0.00012
24,C16A A52U C70G,0.0002 ± 9.8e-05
25,A15G A39U G40A C61A,< 1e-05
26,G13A C16U G29U,5.93e-05 ± 2e-05

# Variants of: B1
# Assay: self-cleavage kobs at 10000 uM GlcN6P; higher = faster cleavage; RNA array
# Conditions: with glucosamine-6-phosphate
# Summary of the method: as §1
row,Variant,self-cleavage kobs at 10000 uM GlcN6P [s⁻¹]
1,G13U G66A,0.000729 ± 0.00013
2,A12U C16A U46C,0.000331 ± 7.6e-05
3,A12U G41C U46G C68A,< 1e-05
4,G29A U65G,0.00113 ± 0.00027
5,C16G U55A C67U C71A,3.71e-05 ± 1.3e-05
6,C16G G41U C50G,< 1e-05
7,A14G U30C A39C U54A,0.000156 ± 2.5e-05
8,A15C A42G C70G,4.12e-05 ± 1.7e-05
9,G13U A42U C50U,< 1e-05
10,G13A A14U U56A,0.000631 ± 0.00023
